The record followed here is paper PMC5070455 (Biophysics, 2012).

The data set concerns the molecule itself. As to the kind of experiment: negative-stain electron microscopy.

B1: desmin (natural protein, chicken, UniProt P02542 1-464, looked up)
chain: MSQSYSSSQRVSSYRRTFGGGTSPVFPRASFGSRGSGSSVTSRVYQVSRTSAVPTLSTFRTTRVTPLRTYQSAYQGAGELLDFSLADAMNQEFLQTRTNEKVELQELNDRFANYIEKVRFLEQQNALMVAEVNRLRGKEPTRVAEMYEEELRELRRQVDALTGQRARVEVERDNLLDDLQKLKQRLQEEIQLKEEAENNLAAFRADVDAATLARIDLERRIESLQEEIAFLKKVHEEEIRELQAQLQEQHIQVEMDISKPDLTAALRDIRAQYESIAAKNIAEAEEWYKSKVSDLTQAANKNNDALRQAKQEMLEYRHQIQSYTCEIDALKGTNDSLMRQMREMEERFAGEAGGYQDTIARLEEEIRHLKDEMARHLREYQDLLNVKMALDVEIATYRKLLEGEENRISIPMHQTFASALNFRETSPDQRGSEVHTKKTVMIKTIETRDGEVVSEATQQQHEVL
In the case of B1, the binding result is recorded as “binds”.
